# Reference: IntAct's records for PubMed 29039417
# B1: Protein PTHB1 (Homo sapiens), Q3SYG4 (parent)
# chain: MSLFKARDWWSTILGDKEEFDQGCLCLANVDNSGNGQDKIIVGSFMGYLRIFSPHPAKTGDGAQAEDLLLEVDLRDPVLQVEVGKFVSGTEMLHLAVLHSRKLCVYSVSGTLGNVEHGNQCQMKLMYEHNLQRTACNMTYGSFGGVKGRDLICIQSMDGMLMVFEQESYAFGRFLPGFLLPGPLAYSSRTDSFLTVSSCQQVESYKYQVLAFATDADKRQETEQQKLGSGKRLVVDWTLNIGEQALDICIVSFNQSASSVFVLGERNFFCLKDNGQIRFMKKLDWSPSCFLPYCSVSEGTINTLIGNHNNMLHIYQDVTLKWATQLPHIPVAVRVGCLHDLKGVIVTLSDDGHLQCSYLGTDPSLFQAPNVQSRELNYDELDVEMKELQKIIKDVNKSQGVWPMTEREDDLNVSVVVSPNFDSVSQATDVEVGTDLVPSVTVKVTLQNRVILQKAKLSVYVQPPLELTCDQFTFEFMTPDLTRTVSFSVYLKRSYTPSELEGNAVVSYSRPTDRNPDGIPRVIQCKFRLPLKLICLPGQPSKTASHKITIDTNKSPVSLLSLFPGFASQSDDDQVNVMGFHFLGGARITVLASKTSQRYRIQSEQFEDLWLITNELILRLQEYFEKQGVKDFACSFSGSIPLQEYFELIDHHFELRINGEKLEELLSERAVQFRAIQRRLLARFKDKTPAPLQHLDTLLDGTYKQVIALADAVEENQGNLFQSFTRLKSATHLVILLIALWQKLSADQVAILEAAFLPLQEDTQELGWEETVDAAISHLLKTCLSKSSKEQALNLNSQLNIPKDTSQLKKHITLLCDRLSKGGRLCLSTDAAAPQTMVMPGGCTTIPESDLEERSVEQDSTELFTNHRHLTAETPRPEVSPLQGVSE
# partner: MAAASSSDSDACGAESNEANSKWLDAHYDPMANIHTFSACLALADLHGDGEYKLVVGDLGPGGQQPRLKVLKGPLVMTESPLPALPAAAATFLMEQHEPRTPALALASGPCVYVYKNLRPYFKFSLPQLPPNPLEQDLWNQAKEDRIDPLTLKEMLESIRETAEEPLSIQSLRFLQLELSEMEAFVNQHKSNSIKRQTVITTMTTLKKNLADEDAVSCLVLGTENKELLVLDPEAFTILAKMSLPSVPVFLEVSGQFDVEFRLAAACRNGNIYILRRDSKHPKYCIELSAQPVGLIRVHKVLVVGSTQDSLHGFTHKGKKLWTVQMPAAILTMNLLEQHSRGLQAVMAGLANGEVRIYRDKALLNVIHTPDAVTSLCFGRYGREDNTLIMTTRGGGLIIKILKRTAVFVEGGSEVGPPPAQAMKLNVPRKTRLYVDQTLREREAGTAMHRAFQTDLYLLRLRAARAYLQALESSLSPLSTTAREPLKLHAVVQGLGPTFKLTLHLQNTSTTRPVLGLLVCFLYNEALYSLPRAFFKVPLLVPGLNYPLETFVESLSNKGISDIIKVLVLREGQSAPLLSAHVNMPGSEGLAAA
# Variants of: B1
# Details: with bbs1_human BBS1, Q8NFJ9
row,Variant,effect of a mutation on the interaction
1,F756A,with no effect
2,P419K,with no effect
3,T731K,with no effect
4,T731A,with no effect
5,V505E,with no effect
6,T688K,disrupting interaction strength
7,G585R,disrupting interaction strength
8,G628A,with no effect
9,R587K,with no effect
10,R587E,with no effect
11,T861K,with no effect
12,L481K,with no effect
13,T478K,with no effect
14,T478A,with no effect
15,Q722T,disrupting interaction strength
16,T871A,with no effect
17,P564K,with no effect
18,P564E,with no effect
19,S545N,disrupting interaction strength
20,S488E,with no effect
21,R598K,with no effect
22,R598E,with no effect
23,E862A,with no effect

row,Variant,effect of a mutation on the interaction
1,G842K,with no effect
2,S787E,with no effect
3,L642E,with no effect
4,L642K,with no effect
5,W741A,with no effect
6,W741E,with no effect
7,A739E,with no effect
8,Q597K,with no effect
9,S596A,with no effect
10,E660A,with no effect
11,A792K,with no effect
12,A792E,disrupting interaction strength
13,E431K,with no effect
14,E873A,with no effect
15,R679K,with no effect
16,Y623K,with no effect
17,Q717E,with no effect
18,E604A,with no effect
19,R683E,with no effect
20,Y495K,with no effect
21,S788A,with no effect
22,S788E,with no effect
23,L681A,with no effect

row,Variant,effect of a mutation on the interaction
1,H694A,with no effect
2,H694Y,disrupting interaction strength
3,L720E,with no effect
4,T445K,with no effect
5,Y460K,with no effect
6,L863E,with no effect
7,P641A,with no effect
8,R669A,with no effect
9,P516E,with no effect
10,L827A,with no effect
11,S541E,with no effect
12,Q462K,with no effect
13,S806K,with no effect
14,W610E,with no effect
15,Q705E,with no effect
16,Q574E,with no effect
17,V838K,disrupting interaction strength
18,D747E,with no effect
19,K821E,with no effect
20,Q524K,with no effect
21,Q524A,with no effect
22,Q621E,with no effect
23,Q621K,with no effect

row,Variant,effect of a mutation on the interaction
1,Q742E,with no effect
2,Q742L,disrupting interaction strength
3,T845A,with no effect
4,I601A,with no effect
5,L825E,with no effect
6,D817A,with no effect
7,V461E,with no effect
8,F721K,with no effect
9,D571E,with no effect
10,F566K,with no effect
11,F636K,with no effect
12,T702A,with no effect
13,L583E,with no effect
14,V459E,disrupting interaction strength
15,V459K,with no effect
16,K786E,with no effect
17,P689A,with no effect
18,L736K,with no effect
19,E761A,with no effect
20,E615A,with no effect
21,N719A,with no effect
22,R818K,with no effect
23,R818E,with no effect

row,Variant,effect of a mutation on the interaction
1,R674A,with no effect
2,D686K,with no effect
3,T441A,with no effect
4,P530K,with no effect
5,S498A,with no effect
6,S498K,with no effect
7,V856K,with no effect
8,V856A,with no effect
9,K532A,with no effect
10,K532E,with no effect
11,T844A,with no effect
12,L795E,with no effect
13,Q453A,with no effect
14,S855E,with no effect
15,L618F,disrupting interaction strength
16,L411A,with no effect
17,P463A,with no effect
18,L529K,with no effect
19,L529A,with no effect
20,F653E,with no effect
21,P537K,with no effect
22,L655K,with no effect
23,A544E,with no effect

row,Variant,effect of a mutation on the interaction
1,R514E,with no effect
2,E848K,with no effect
3,G659E,with no effect
4,G659K,with no effect
5,D572A,with no effect
6,D572E,with no effect
7,S745K,with no effect
8,L799K,with no effect
9,C469E,with no effect
10,C634K,with no effect
11,V489A,with no effect
12,L698E,with no effect
13,S729K,with no effect
14,K626A,with no effect
15,L611E,with no effect
16,R521A,with no effect
17,L457A,with no effect
18,T836K,with no effect
19,N658E,with no effect
20,N658K,with no effect
21,Q693E,with no effect
22,I612K,with no effect
23,L620E,with no effect

row,Variant,effect of a mutation on the interaction
1,L620F,disrupting interaction strength
2,A774K,with no effect
3,S639A,with no effect
4,S785E,with no effect
5,A730K,with no effect
6,G565E,with no effect
7,G565K,with no effect
8,G565S,disrupting interaction strength
9,Q539A,with no effect
10,L491A,with no effect
11,L814K,with no effect
12,L616A,with no effect
13,C535E,with no effect
14,I617K,with no effect
15,T496A,with no effect
16,V557K,with no effect
17,V430E,with no effect
18,V430A,with no effect
19,L819E,with no effect
20,A504K,with no effect
21,L737A,with no effect
22,L737K,with no effect
23,F563E,with no effect

row,Variant,effect of a mutation on the interaction
1,Y599E,with no effect
2,V442A,with no effect
3,E765K,with no effect
4,M578E,with no effect
5,Q858K,with no effect
6,V577K,with no effect
7,L467E,with no effect
8,H811E,with no effect
9,H811K,with no effect
10,T829A,with no effect
11,L536K,with no effect
12,S494A,with no effect
13,L744A,with no effect
14,L744K,with no effect
15,K685E,with no effect
16,Q677Y,disrupting interaction strength
17,K554A,with no effect
18,A592E,with no effect
19,I640E,with no effect
20,P540A,with no effect
